Results on 1 molecule are retold here after patent US20190256560A1 (INSTITUT PASTEUR, published 2019).

For this assay, the target named is T1, Recombinant soluble Zika virus E ectodomain (ZIKV sE), strain H/PF/2013 (Zika virus, UniProt A0A024B7W1 291-694).
T1 construct: also called ZIKV sE dimer; recombinant ZIKV E protein
The assay can be described thus: BLI (Octet), IgG on anti-human IgG Fc sensors, ZIKV sE dimer in solution. Background: Biolayer interferometry detects binding as a change in optical thickness at a sensor tip.

T1 sequence (A0A024B7W1 291-694): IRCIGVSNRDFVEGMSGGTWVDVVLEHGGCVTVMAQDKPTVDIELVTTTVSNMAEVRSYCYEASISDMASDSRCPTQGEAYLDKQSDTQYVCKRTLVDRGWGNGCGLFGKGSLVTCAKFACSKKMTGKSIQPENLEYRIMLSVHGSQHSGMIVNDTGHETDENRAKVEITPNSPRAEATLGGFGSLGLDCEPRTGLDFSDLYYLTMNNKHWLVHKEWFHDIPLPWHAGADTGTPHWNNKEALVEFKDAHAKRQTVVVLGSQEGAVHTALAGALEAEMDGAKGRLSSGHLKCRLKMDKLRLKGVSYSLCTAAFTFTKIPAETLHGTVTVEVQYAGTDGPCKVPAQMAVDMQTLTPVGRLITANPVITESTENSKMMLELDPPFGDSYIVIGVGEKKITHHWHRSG

B1: EDE2 A11, human recombinant IgG (antibody, V domains shown)
VH: EVQLVESGGGLVRPGGSLRLSCAASGFSYSNHWMHWVRQAPGKGLVWVSRINSDGSTRNYADFVKGRFTISRDNAENTLYLEMNSLTADDTAVYYCVRDGVRFYYDSTGYYPDSFFKYGMDVWGQGTTVTV
VL: QSVLTQPVSVSGSPGQSITISCTGTSSNADTYNLVSWYQQRPGKAPKLMIYEGTKRPSGVSNRFSASKSATAASLTISGLQPEDEADYYCCSYATSRTLVFGGGTKLTVV
notes: Human IgG; also called IgG EDE2 A11
As for B1, the binding result is listed as “binds”.
